B1: DVD3754 (bispecific antibody, human IgG1, kappa)
heavy: not shown
light: DVVMTQTPLSLPVSLGDQASISCRSSQSLVHSNGNTYLHWYLQKPGQSPKLLIYKVSNRFSGVPDRFSGSGSGTDFTLKISRVEAEDLGAYFCSQSTHVPYTFGGPTRLEIKRTVAAPSVFIFPPNTVMTQSPTSMFISVGDRVTMNCKASQNVGSDVDWYQQKTGQSPKLLISGTSNRYTGVPDRFTGSGSGTDFTLTISNMQAEDLAVYYCLQYNYNPTFGAGTKLELKRTVAAPSVFIFPPSDEQLKSGTASVVCLLNNFYPREAKVQWKVDNALQSGNSQESVTEQDSKDSTYSLSSTLTLSKADYEKHKVYACEVTHQGLSSPVTKSFNRGEC
notes: Four-chain DVD-Ig; also called IgM/DNA DVD3754
B2: DVD3755 (bispecific antibody, human IgG1, kappa)
heavy: not shown
light: DVVMTQTPLSLPVSLGDQASISCRSSQSLVHSNGNTYLHWYLQKPGQSPKLLIYKVSNRFSGVPDRFSGSGSGTDFTLKISRVEAEDLGAYFCSQSTHVPYTFGGPTRLEIKRTVAAPNTVMTQSPTSMFISVGDRVTMNCKASQNVGSDVDWYQQKTGQSPKLLISGTSNRYTGVPDRFTGSGSGTDFTLTISNMQAEDLAVYYCLQYNYNPTFGAGTKLELKRTVAAPSVFIFPPSDEQLKSGTASVVCLLNNFYPREAKVQWKVDNALQSGNSQESVTEQDSKDSTYSLSSTLTLSKADYEKHKVYACEVTHQGLSSPVTKSFNRGEC
notes: Four-chain DVD-Ig
B3: DVD3752 (bispecific antibody, human IgG1, kappa)
heavy: not shown
light: DVVMTQTPLSLPVSLGDQASISCRSSQSLVHSNGNTYLHWYLQKPGQSPKLLIYKVSNRFSGVPDRFSGSGSGTDFTLKISRVEAEDLGAYFCSQSTHVPYTFGGPTRLEIKRTVAAPNTVMTQSPTSMFISVGDRVTMNCKASQNVGSDVDWYQQKTGQSPKLLISGTSNRYTGVPDRFTGSGSGTDFTLTISNMQAEDLAVYYCLQYNYNPTFGAGTKLELKRTVAAPSVFIFPPSDEQLKSGTASVVCLLNNFYPREAKVQWKVDNALQSGNSQESVTEQDSKDSTYSLSSTLTLSKADYEKHKVYACEVTHQGLSSPVTKSFNRGEC
notes: Four-chain DVD-Ig
B4: DVD3756 (bispecific antibody, human IgG1, kappa)
heavy: not shown
light: NTVMTQSPTSMFISVGDRVTMNCKASQNVGSDVDWYQQKTGQSPKLLISGTSNRYTGVPDRFTGSGSGTDFTLTISNMQAEDLAVYYCLQYNYNPTFGAGTKLELKRGGSGGGGSGDVVMTQTPLSLPVSLGDQASISCRSSQSLVHSNGNTYLHWYLQKPGQSPKLLIYKVSNRFSGVPDRFSGSGSGTDFTLKISRVEAEDLGAYFCSQSTHVPYTFGGPTRLEIKRTVAAPSVFIFPPSDEQLKSGTASVVCLLNNFYPREAKVQWKVDNALQSGNSQESVTEQDSKDSTYSLSSTLTLSKADYEKHKVYACEVTHQGLSSPVTKSFNRGEC
notes: Four-chain DVD-Ig
B5: DVD3759 (bispecific antibody, human IgG1, kappa)
heavy: not shown
light: NTVMTQSPTSMFISVGDRVTMNCKASQNVGSDVDWYQQKTGQSPKLLISGTSNRYTGVPDRFTGSGSGTDFTLTISNMQAEDLAVYYCLQYNYNPTFGAGTKLELKRTVAAPSVFIFPPDVVMTQTPLSLPVSLGDQASISCRSSQSLVHSNGNTYLHWYLQKPGQSPKLLIYKVSNRFSGVPDRFSGSGSGTDFTLKISRVEAEDLGAYFCSQSTHVPYTFGGPTRLEIKRTVAAPSVFIFPPSDEQLKSGTASVVCLLNNFYPREAKVQWKVDNALQSGNSQESVTEQDSKDSTYSLSSTLTLSKADYEKHKVYACEVTHQGLSSPVTKSFNRGEC
notes: Four-chain DVD-Ig
B6: DVD3751 (bispecific antibody, human IgG1, kappa)
heavy: not shown
light: DVVMTQTPLSLPVSLGDQASISCRSSQSLVHSNGNTYLHWYLQKPGQSPKLLIYKVSNRFSGVPDRFSGSGSGTDFTLKISRVEAEDLGAYFCSQSTHVPYTFGGPTRLEIKRGGSGGGGSGNTVMTQSPTSMFISVGDRVTMNCKASQNVGSDVDWYQQKTGQSPKLLISGTSNRYTGVPDRFTGSGSGTDFTLTISNMQAEDLAVYYCLQYNYNPTFGAGTKLELKRTVAAPSVFIFPPSDEQLKSGTASVVCLLNNFYPREAKVQWKVDNALQSGNSQESVTEQDSKDSTYSLSSTLTLSKADYEKHKVYACEVTHQGLSSPVTKSFNRGEC
notes: Four-chain DVD-Ig
B7: DVD3757 (bispecific antibody, human IgG1, kappa)
heavy: not shown
light: NTVMTQSPTSMFISVGDRVTMNCKASQNVGSDVDWYQQKTGQSPKLLISGTSNRYTGVPDRFTGSGSGTDFTLTISNMQAEDLAVYYCLQYNYNPTFGAGTKLELKRTVAAPDVVMTQTPLSLPVSLGDQASISCRSSQSLVHSNGNTYLHWYLQKPGQSPKLLIYKVSNRFSGVPDRFSGSGSGTDFTLKISRVEAEDLGAYFCSQSTHVPYTFGGPTRLEIKRTVAAPSVFIFPPSDEQLKSGTASVVCLLNNFYPREAKVQWKVDNALQSGNSQESVTEQDSKDSTYSLSSTLTLSKADYEKHKVYACEVTHQGLSSPVTKSFNRGEC
notes: Four-chain DVD-Ig
B8: DVD3760 (bispecific antibody, human IgG1, kappa)
heavy: not shown
light: NTVMTQSPTSMFISVGDRVTMNCKASQNVGSDVDWYQQKTGQSPKLLISGTSNRYTGVPDRFTGSGSGTDFTLTISNMQAEDLAVYYCLQYNYNPTFGAGTKLELKRTVAAPDVVMTQTPLSLPVSLGDQASISCRSSQSLVHSNGNTYLHWYLQKPGQSPKLLIYKVSNRFSGVPDRFSGSGSGTDFTLKISRVEAEDLGAYFCSQSTHVPYTFGGPTRLEIKRTVAAPSVFIFPPSDEQLKSGTASVVCLLNNFYPREAKVQWKVDNALQSGNSQESVTEQDSKDSTYSLSSTLTLSKADYEKHKVYACEVTHQGLSSPVTKSFNRGEC
notes: Four-chain DVD-Ig

Key:
[1] = target: mouse IgM (mouse, UniProt P01872 1-454); experiment: IgM binding ELISA, mIgM coated on plate
[2] = target: mouse IgM B cell receptor on primary murine B cells (mouse); experiment: cell-based or functional assay

Sequence of mouse IgM (P01872 whole entry): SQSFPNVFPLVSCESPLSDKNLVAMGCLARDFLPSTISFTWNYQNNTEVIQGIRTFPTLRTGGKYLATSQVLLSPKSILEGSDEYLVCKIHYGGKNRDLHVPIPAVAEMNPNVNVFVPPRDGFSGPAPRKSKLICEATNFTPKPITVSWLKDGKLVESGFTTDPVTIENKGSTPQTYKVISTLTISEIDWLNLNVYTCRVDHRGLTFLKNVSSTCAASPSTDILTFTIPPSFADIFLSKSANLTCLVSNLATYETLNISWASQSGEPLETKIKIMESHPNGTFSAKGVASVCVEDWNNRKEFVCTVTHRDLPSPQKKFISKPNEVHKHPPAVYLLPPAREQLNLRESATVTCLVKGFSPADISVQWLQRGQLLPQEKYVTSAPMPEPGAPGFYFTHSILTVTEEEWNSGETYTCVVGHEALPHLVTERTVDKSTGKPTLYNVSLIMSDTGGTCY

| Binder | EC50 [1] [µg/mL] | ^3H incorporation, AM14 TLR9-/- B cells [2] | ^3H incorporation, AM14 WT B cells [2] |
| --- | --- | --- | --- |
| B1 | 0.117 | 1600 | 35200 |
| B2 | 0.0971 | 402 | 8500 |
| B3 | 0.205 | 512 | 12700 |
| B4 | 0.0331 | 459 | 7790 |
| B5 | 0.0412 | 970 | 18600 |
| B6 | 0.191 | 1180 | 35600 |
| B7 | 0.0418 | 382 | 4060 |
| B8 | 0.0353 | 302 | 4340 |
